Measured values: US7351553B2, “BK beta subunits of Slo family potassium channels” (Icagen, Inc., priority 1999, dated 2008)

Legend:
Slo-1/BKB3 = target: T1, Slo-1/BKB3 (Homo sapiens, UniProt Q12791); assay: Whole-cell voltage-clamp of membrane currents in HEK293 cells co-expressing Slo-1 and BK beta 3; format: cell-based; settings: for sensitivity (block) of membrane currents: CTX 100 nM
T1 construct: expressed in transfected cells; host or cells: HEK293
Description: (§1) FIG. 6. Slo-1/BKB3 forms BK type II-like charybdotoxin-(CTX) insensitive channels. Slo-1 (A) or Slo-1+BK beta 3 (B) were expressed in HEK293 cells and membrane currents measured using the whole-cell voltage-clamp technique. […]. In contrast, membrane currents in cells co-expressing Slo-1 and BK beta 3 were TEA (5 mM) sensitive but CTX (100 nM) insensitive (FIG. 6B). Similar recordings were made from 4 cells expressing Slo-1 alone and 6 cells co-expressing Slo-1/BKB3. Scale bars represent InA and 200 ms.

Slo-1 = target: T2, Slo-1 (Homo sapiens, UniProt Q12791); assay: Whole-cell voltage-clamp of membrane currents in HEK293 cells expressing Slo-1 alone; format: cell-based; settings: 250 ms depolarizing steps from holding potential -80 mV; for inhibition (block) of membrane currents: CTX 100 nM
T2 construct: expressed in transfected cells; host or cells: HEK293
Description: as §1

T2 sequence (Q12791 whole entry): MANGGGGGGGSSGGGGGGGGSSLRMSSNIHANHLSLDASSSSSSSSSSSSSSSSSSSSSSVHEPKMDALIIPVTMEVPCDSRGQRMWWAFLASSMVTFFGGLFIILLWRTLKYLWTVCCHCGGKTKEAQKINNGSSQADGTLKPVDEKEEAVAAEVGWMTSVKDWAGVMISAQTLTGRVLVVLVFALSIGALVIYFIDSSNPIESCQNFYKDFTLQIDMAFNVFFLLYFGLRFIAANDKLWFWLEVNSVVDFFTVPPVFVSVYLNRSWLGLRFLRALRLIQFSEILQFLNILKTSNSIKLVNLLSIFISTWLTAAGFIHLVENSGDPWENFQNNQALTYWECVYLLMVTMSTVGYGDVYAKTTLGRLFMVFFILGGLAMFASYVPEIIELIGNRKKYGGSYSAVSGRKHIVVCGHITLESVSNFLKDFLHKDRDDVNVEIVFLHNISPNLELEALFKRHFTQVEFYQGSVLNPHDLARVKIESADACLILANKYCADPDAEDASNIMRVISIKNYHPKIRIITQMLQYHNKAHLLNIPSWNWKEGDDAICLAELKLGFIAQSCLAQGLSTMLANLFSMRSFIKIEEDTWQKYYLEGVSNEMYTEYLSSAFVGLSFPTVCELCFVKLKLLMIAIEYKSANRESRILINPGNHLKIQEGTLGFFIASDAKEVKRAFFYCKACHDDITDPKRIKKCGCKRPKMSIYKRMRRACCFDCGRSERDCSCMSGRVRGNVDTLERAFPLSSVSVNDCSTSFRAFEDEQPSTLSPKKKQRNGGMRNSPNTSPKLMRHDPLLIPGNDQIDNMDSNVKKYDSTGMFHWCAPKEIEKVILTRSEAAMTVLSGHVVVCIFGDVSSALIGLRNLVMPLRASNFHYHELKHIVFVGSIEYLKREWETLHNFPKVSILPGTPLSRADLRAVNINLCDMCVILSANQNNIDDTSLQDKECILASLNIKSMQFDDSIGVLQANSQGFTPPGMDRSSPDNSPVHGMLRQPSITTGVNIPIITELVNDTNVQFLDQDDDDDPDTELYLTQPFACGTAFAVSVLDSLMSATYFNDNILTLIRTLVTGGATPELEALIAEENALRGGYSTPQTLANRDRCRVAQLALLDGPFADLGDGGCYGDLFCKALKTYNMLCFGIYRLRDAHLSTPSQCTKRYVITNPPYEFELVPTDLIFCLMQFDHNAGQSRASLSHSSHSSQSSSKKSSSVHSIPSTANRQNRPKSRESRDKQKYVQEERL
T1 sequence (Q12791 whole entry): as above
T1 sequence (Q86W47 whole entry partner): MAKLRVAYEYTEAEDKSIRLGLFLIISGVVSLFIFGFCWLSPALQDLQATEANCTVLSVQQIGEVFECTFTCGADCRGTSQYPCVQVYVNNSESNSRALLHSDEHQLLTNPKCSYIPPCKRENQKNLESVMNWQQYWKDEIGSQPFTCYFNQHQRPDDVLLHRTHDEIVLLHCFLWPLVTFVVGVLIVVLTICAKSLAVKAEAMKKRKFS

Compound	sensitivity of membrane currents (Slo-1/BKB3; TEA 5 mM)	inhibition of membrane currents (Slo-1; TEA 5 mM)	sensitivity (block) of membrane currents (Slo-1/BKB3)	sensitivity (block) of membrane currents (Slo-1/BKB3; listed as charybdotoxin)	inhibition (block) of membrane currents (Slo-1)	inhibition (block) of membrane currents (Slo-1; listed as charybdotoxin)
CC[N+](CC)(CC)CC [TEA]	sensitive	strongly inhibited				
charybdotoxin [CTX]			insensitive	virtually unblocked	strongly inhibited	almost completely blocked
